We go through five molecules from paper PMC10076317, “Extended DNA threading through a dual-engine motor module of the activating signal co-integrator 1 complex” (Nature Communications, 2023).

Data set [1] deals with T1, ASCC3 helicase region (ASCC3^HR, residues 401-2202) (human, UniProt Q8N3C0 401-2202).
T1 construct: source: High Five cells via recombinant baculovirus, purified (Ni-NTA, TEV, heparin, SEC); also co-produced with TRIP4 in High Five cells; not shown: His10, N-terminal, cleaved
As to the kind of experiment: SEC; analytical SEC, Superdex 200 3.2/300; 20 mM HEPES-NaOH pH 7.5, 250 mM NaCl, 5% glycerol, 1 mM DTT; 100 pmol ASCC3^HR mixed with other proteins in two to tenfold molar excess in 80 µl, 30 min on ice; fractions by SDS-PAGE. The settings on record: both partners purified.

In data set [2] the target is T1, ASCC3 helicase region (ASCC3^HR, …). As to the kind of experiment: SEC; analytical SEC for competitive binding, Superdex 200 3.2/300; 120 pmol ASCC3^HR with 360 pmol TRIP4 and/or ALKBH3 in 100 µl, 30 min on ice; fractions by SDS-PAGE, Coomassie. The conditions noted are these: both partners purified.
For data set [3] the target is unchanged. As to the kind of experiment: cell-based or functional assay.
The target in a further data set is ASCC3HR (human, UniProt Q8N3C0 401-2202). As to the kind of experiment: MST; no ATP; Hill fit EC50; MST: 20 mM HEPES-NaOH pH 7.5, 300 mM NaCl, 5% glycerol, 1 mM DTT, room temperature, 50 nM final Cy5-T48; UV cross-linking: 50 mM HEPES-NaOH pH 7.5, 80 mM NaCl. The settings on record: protein: recombinant; tags: N-terminal His10, TEV-cleaved; label: 5'-Cy5; single strand.
ASCC3HR, sequence (Q8N3C0 401-2202): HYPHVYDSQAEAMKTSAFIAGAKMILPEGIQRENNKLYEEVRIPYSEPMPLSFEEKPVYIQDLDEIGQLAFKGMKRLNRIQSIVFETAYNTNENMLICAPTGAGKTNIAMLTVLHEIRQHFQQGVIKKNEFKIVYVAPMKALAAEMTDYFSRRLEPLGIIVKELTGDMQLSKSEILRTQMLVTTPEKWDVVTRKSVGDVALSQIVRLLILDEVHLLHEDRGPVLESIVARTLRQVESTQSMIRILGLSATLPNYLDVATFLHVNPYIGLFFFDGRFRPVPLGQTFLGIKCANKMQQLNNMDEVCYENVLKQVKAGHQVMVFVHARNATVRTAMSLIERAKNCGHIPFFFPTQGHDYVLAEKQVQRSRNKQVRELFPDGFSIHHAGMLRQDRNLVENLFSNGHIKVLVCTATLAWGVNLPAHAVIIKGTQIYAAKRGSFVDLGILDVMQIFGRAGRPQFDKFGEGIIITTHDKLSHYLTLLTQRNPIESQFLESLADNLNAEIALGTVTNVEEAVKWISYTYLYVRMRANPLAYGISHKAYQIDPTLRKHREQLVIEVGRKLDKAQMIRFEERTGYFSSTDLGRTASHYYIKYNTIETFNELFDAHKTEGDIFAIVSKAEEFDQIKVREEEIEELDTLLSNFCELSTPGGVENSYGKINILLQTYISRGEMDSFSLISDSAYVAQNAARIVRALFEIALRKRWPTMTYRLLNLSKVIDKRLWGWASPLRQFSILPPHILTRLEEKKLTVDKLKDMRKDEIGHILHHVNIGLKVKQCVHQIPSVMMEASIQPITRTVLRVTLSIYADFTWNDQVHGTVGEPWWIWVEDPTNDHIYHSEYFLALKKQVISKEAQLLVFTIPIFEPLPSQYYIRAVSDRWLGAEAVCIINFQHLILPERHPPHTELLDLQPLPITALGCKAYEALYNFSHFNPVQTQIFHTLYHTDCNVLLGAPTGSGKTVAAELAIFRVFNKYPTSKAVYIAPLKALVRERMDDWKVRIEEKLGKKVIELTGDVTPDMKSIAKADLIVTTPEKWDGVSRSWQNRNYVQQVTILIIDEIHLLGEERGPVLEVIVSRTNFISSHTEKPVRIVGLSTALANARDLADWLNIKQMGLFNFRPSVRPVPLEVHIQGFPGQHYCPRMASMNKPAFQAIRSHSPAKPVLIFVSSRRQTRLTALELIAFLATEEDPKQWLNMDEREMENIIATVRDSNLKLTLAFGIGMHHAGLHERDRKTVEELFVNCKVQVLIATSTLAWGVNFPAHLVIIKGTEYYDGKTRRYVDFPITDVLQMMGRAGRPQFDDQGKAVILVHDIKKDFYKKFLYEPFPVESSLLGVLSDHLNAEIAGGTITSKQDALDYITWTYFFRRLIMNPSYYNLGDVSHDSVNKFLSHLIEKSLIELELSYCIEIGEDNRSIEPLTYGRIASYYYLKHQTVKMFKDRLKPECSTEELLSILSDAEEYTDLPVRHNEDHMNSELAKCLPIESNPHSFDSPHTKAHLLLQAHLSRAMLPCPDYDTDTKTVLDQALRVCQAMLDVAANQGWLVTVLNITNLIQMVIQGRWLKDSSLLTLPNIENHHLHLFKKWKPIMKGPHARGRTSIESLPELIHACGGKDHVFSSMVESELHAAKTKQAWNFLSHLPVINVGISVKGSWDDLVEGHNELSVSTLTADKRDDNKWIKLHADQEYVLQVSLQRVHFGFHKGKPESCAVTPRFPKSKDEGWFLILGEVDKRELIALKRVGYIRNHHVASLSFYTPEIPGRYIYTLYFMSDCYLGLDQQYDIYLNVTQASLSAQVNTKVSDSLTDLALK

In the next data set the target is T2, TRIP4 (UniProt Q15650 1-581).
T2 sequence: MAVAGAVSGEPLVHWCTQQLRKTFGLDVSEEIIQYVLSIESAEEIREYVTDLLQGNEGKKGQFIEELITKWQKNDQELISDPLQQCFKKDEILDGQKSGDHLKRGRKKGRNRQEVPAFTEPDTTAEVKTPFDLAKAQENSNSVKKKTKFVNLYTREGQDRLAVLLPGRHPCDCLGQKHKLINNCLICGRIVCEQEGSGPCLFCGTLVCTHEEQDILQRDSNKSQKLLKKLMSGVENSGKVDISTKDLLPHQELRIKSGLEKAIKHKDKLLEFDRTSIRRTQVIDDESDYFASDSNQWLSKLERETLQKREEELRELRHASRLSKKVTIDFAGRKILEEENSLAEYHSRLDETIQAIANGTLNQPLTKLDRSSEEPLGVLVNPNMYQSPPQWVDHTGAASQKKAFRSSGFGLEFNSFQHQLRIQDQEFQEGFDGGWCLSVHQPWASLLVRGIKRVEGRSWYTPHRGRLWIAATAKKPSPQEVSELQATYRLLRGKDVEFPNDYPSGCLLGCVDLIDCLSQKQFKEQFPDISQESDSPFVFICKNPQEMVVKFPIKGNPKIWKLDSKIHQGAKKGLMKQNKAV
The description is as above. The conditions noted are these: protein: recombinant; tags: N-terminal His6, TEV-cleaved; label: 5'-Cy5; single strand.

Another data set concerns the target ASCC3HR;TRIP4 (human;human?, UniProt Q8N3C0;Q15650 401-2202;1-581, |). The description is as above. The conditions noted are these: protein: recombinant;recombinant; tags: N-terminal His10, TEV-cleaved;N-terminal His6, TEV-cleaved; copies: 1;1; label: 5'-Cy5; single strand.
A further data set addresses ASCC3HR;TRIP4 1-230 (human;human?, UniProt Q8N3C0;Q15650 401-2202;1-230, |). Described as above. The conditions noted are these: protein: recombinant;recombinant; tags: N-terminal His10, TEV-cleaved;N-terminal His6, TEV-cleaved; copies: 1;1; label: 5'-Cy5; single strand.

T1 sequence (Q8N3C0 401-2202): as the sequence (Q8N3C0 401-2202) above
ASCC3HR;TRIP4 1-230, sequence (Q8N3C0 401-2202, one chain of several): as the sequence (Q8N3C0 401-2202) above
ASCC3HR;TRIP4, sequence (Q8N3C0 401-2202, one chain of several): as the sequence (Q8N3C0 401-2202) above

B1: TRIP4^152-581 (domain or fragment, human, UniProt Q15650 152-581, looked up)
chain: LYTREGQDRLAVLLPGRHPCDCLGQKHKLINNCLICGRIVCEQEGSGPCLFCGTLVCTHEEQDILQRDSNKSQKLLKKLMSGVENSGKVDISTKDLLPHQELRIKSGLEKAIKHKDKLLEFDRTSIRRTQVIDDESDYFASDSNQWLSKLERETLQKREEELRELRHASRLSKKVTIDFAGRKILEEENSLAEYHSRLDETIQAIANGTLNQPLTKLDRSSEEPLGVLVNPNMYQSPPQWVDHTGAASQKKAFRSSGFGLEFNSFQHQLRIQDQEFQEGFDGGWCLSVHQPWASLLVRGIKRVEGRSWYTPHRGRLWIAATAKKPSPQEVSELQATYRLLRGKDVEFPNDYPSGCLLGCVDLIDCLSQKQFKEQFPDISQESDSPFVFICKNPQEMVVKFPIKGNPKIWKLDSKIHQGAKKGLMKQNKAV
notes: source: E. coli BL21 (DE3), purified (Ni-NTA, TEV, heparin, SEC); not shown: His6, N-terminal, cleaved
On to B1, for which the binding result in data set [1] is listed as “binds”.

B2: ALKBH3 (alpha-ketoglutarate/iron-dependent dioxygenase, DNA/RNA dealkylase), full length (enzyme, human, UniProt Q96Q83 1-286, looked up)
chain: MEEKRRRARVQGAWAAPVKSQAIAQPATTAKSHLHQKPGQTWKNKEHHLSDREFVFKEPQQVVRRAPEPRVIDREGVYEISLSPTGVSRVCLYPGFVDVKEADWILEQLCQDVPWKQRTGIREDITYQQPRLTAWYGELPYTYSRITMEPNPHWHPVLRTLKNRIEENTGHTFNSLLCNLYRNEKDSVDWHSDDEPSLGRCPIIASLSFGATRTFEMRKKPPPEENGDYTYVERVKIPLDHGTLLIMEGATQADWQHRVPKEYHSREPRVNLTFRTVYPDPRGAPW
notes: ALKBH3, human, full length, amplified from a cDNA library of human HeLa cells, pETM-11; source: E. coli C2566, purified (Ni-NTA, TEV, heparin, SEC); not shown: His6, N-terminal, cleaved
On to B2, for which, in data set [2], the binding result is on record as “binds”.

B3: TRIP4, full length, co-produced with ASCC3^HR in insect cells (natural protein, human, UniProt Q15650 1-581, looked up)
chain: T2 sequence
Take B3: the “amplitude-weighted DNA unwinding rate constant (kuaw) of ASCC3^HR with TRIP4, stopped-flow fluorescence, no trap (ASCC3^HR alone 0.024 s^-1; stimulated 2.3-fold)” value in data set [3] was determined as 0.054 s⁻¹.

B4: TRIP4^152-230 (domain or fragment, human, UniProt Q15650 152-230, looked up)
chain: LYTREGQDRLAVLLPGRHPCDCLGQKHKLINNCLICGRIVCEQEGSGPCLFCGTLVCTHEEQDILQRDSNKSQKLLKKL
notes: TRIP4, human, residues 152-230 (ZnF domain); also called ZnF domain alone; source: E. coli BL21 (DE3), purified (Ni-NTA, TEV, SEC); not shown: His6, N-terminal, cleaved
For B4, the binding result in data set [1] was “binds”.
As to TTTTTTTTTTTTTTTTTTTTTTTTTTTTTTTTTTTTTTTTTTTTTTTT (ssDNA) [T48 (Cy5)], the “apparent K (half saturation)” value with ASCC3HR stood at 551 ± 194 nM; with TRIP4, 903 ± 24 nM; with ASCC3HR;TRIP4 it was 53 ± 3 nM; with ASCC3HR;TRIP4 1-230, 468 ± 63 nM.
